Measured values reported in the PETadex activity labels (doi:10.1021/acsomega.4c04843).

What was measured:
pNPB = experiment: Proxy for plastic degradation [p-nitrophenol (pNP) release]; conditions: pH 7.4
PET = experiment: Proxy for plastic degradation [Released monomer concentration (HPLC/LC-MS) (TPA)]; conditions: pH 8

Protein	Proxy for plastic degradation (pNPB) [U/mL]	Proxy for plastic degradation (PET) [mM/mg]
unnamed (protein) MFRFHIVSALLTLFIAVPSQAHDVGQREIKISGAEPGRNLEVSVWYPAAIDGKATLIGDNIIFKGAPAVIDATPEKGSFPLLVMSHGSGGRAQGMAWLATELVKAGIIVAAPNHPGTTSGDSTPQDTPKIWQRTGDLSAVIDTMTTDPAWSGIIDKNKISVLGWSLGGAAAMEIAGARANLEAYARYCDTYGKWDCAWYAGGIGYRDDKQIKVDKVDLRSVDKSRFEQSNLDRRIASAIMIDPGLAQAYDAQSLASISIPMSFINLGEVETIPTGVVADKLASITPQGTYVTVAGATHFSFLPECKKGAADRLKSAGEVDPICSDDARRPRADIHADITKLVLKALQSMPKT	5	–
unnamed (protein) MFRFHIVSALLTLFIAVPSQAHDVGQREIKISGAEPGRNLEVSVWYPAAIDGKATLIGDNIIFKGAPAVIDATPEKGSFPLLVMSHGSGGRAQGMAWLATELVKAGIIVAAPNHPGTTSGDSTPQDTPKIWQRTGDLSAVIDTMTTDPAWSGIIDKNKISVLGFSMGGAAAMEIAGARANLEAYARYCDTYGKWDCAWYAGGIGYRDDKQIKVDKVDLRSVDKSRFEQSNLDRRIASAIMIDPGLAQAYDAQSLASISIPMSFINLGEVETIPTGVVADKLASITPQGTYVTVAGATHFSFLPECKKGAADRLKSAGEVDPICSDDARRPRADIHADITKLVLKALQSMPKT	225	–
unnamed (protein) MLHYKTYTISDDHPWVIFIHGAGGSLSHWYRQLRPFRKKYNVLLVDLRGHGGSYDAEQSLKQPLNAYTFDVVAKDVIEVMDHLGIEKGHMVGLSLGTIVIQAMFEHYPDRIASVVLGGAIVKFNVRSTMLIRLGSLVQNFVPYMWLYKLFAWILLPKKRHKKSRMMFVRDAANLCQREFIRWFKMTENINPLLNQFTSIQTNVPILYIMGDEDYMFLEAVERTAKHQPTANVEIVADSGHVVNVDQPDQFNALSMNFIDDQIQARSLQMS	4	–
unnamed (protein) MFRFHIVSALLTLFIAVPSQAHDVGQREIKISGAEPGRNLEVSVWYPAAIDGKATLIGDNIIFKGAPAVIDATPEKGSFPLLVMSHGSGGRAQGMAWLATELVKAGIIVAAPNHPGTTSGDSTPQDTPKIWQRTGDLSAVIDTMTTDPAWSGIIDKNKISVLGFSLGGAAAMEIAGARANLEAYARYCDTYGKWDCAWYAGGIGYRDDKQIKVDKVDLRSVDKSRFEQSNLDRRIASAIMIDPGLAQAYDAQSLASISIPMSFINLGEVETIPTGVVADKLASITPQGTYVTVAGATHISFLPECKKGAADRLKSAGEVDPICSDDARRPRADIHADITKLVLKALQSMPKT	75	–
unnamed (protein) MFRFHIVSALLTLFIAVPSQAHDVGQREIKISGAEPGRNLEVSVWYPAAIDGKATLIGDNIIFKGAPAVIDATPEKGSFPLLVMSHGSGGRAQGMAWLATELVKAGIIVAAPNHPGTTSGDSTPQDTPKIWQRTGDLSAVIDTMTTDPAWSGIIDKNKISVLGFSLGGAAAMEIAGARANLEAYARYADTYGKWDCAWYAGGIGYRDDKQIKVDKVDLRSVDKSRFEQSNLDRRIASAIMIDPGLAQAYDAQSLASISIPMSFINLGEVETIPTGVVADKLASITPQGTYVTVAGATHFSFLPECKKGAADRLKSAGEVDPICSDDARRPRADIHADITKLVLKALQSMPKT	10	–
unnamed (protein) MFRFHIVSALLTLFIAVPSQAHDVGQREIKISGAEPGRNLEVSVWYPAAIDGKATLIGDNIIFKGAPAVIDATPEKGSFPLLVMSHGSGGRAQGMAWLATELVKAGIIVAAPNHPGTTSGDSTPQDTPKIWQRTGDLSAVIDTMTTDPAWSGIIDKNKISVLGFSLGGAAAMEIAGARANLEAYARYCDTYGKWDCAWYAGGIGYRDDKQIKVDKVDLRSVDKSRFEQSNLDRRIASAIMIDPGLAQAYDAQSLASISIPMSFINLGEVETIPTGVVADKLASITPQGTYVTVDGATHFSFLPECKKGAADRLKSAGEVDPICSDDARRPRADIHADITKLVLKALQSMPKT	100	1
unnamed (protein) MFRFHIVSALLTLFIAVPSQAHDVGQREIKISGAEPGRNLEVSVWYPAAIDGKATLIGDNIIFKGAPAVIDATPEKGSFPLLVMSHGSGGRAQGMAWLATELVKAGIIVAAPNHPGTTSGDSTPQDTPKIWQRTGDLSAVIDTMTTDPAWSGIIDKNKISVLGFSLGGAAAMEIAGARANLEAYARYCDTYGKWDCAWYAGGIGYRDDKQIKVDKVDLRSVDKSRFEQSNLDRRIASAIMIAPGLAQAYDAQSLASISIPMSFINLGEVETIPTGVVADKLASITPQGTYVTVAGATHFSFLPECKKGAADRLKSAGEVDPICSDDARRPRADIHADITKLVLKALQSMPKT	20	–
unnamed (protein) MVPTTVDFDTLCPEPIFQDRWVATPRGRVFTRTWETSHLRSDVPIVLLHDSLGCVDLWRSFPAALCAATQRRVIAYDRLGFGRSDACLTPPLLSFIDDEPSTSFAALQSAFQLTHFIALGHSVGGCMAVHCAGQYVEQCQGLITIAAQAVNEPRTQQGIEEARAAFQMPEQFAKLEKYHGNKARWVLNGWIDTWLHPAFEHWSLTPALQHVHCPTLVLHGENDEYGSHRQPEGIARHTRGPAHTEILPGVGHVPHREVEAVVVHYVSEFIERLTP	30	–
unnamed (protein) MFRFHIVSALLTLFIAVPSQAHDVGQREIKISGAEPGRNLEVSVWYPAAIDGKATLIGDNIIFKGAPAVIDATPEKGSFPLLVMSHGSGGRAQGMAWLATELVKAGIIVAAPNHPGTTSGDSTPQDTPKIWQRTGDLSAVIDTMTTDPAWSGIIDKNKISVLGFSLGGAAAMEIAGARANLEAYARYCDTYGKWDCAWYAGGIGYRDDKQIKVDKVDLRSVDKSRFEQSNLDRRIASAIMIDPGLAQAYDAQSLASISIPMSFINLGEVETIPTGVVADKLASITPQGTYVTVAGATHWSFLPECKKGAADRLKSAGEVDPICSDDARRPRADIHADITKLVLKALQSMPKT	110	–
unnamed (protein) MPPFRSSRWLSGGHVQTLYSPLWRASPQLQRRRERMTLQDGDFIDLDWYGPEGEATNCVLLLHGLTGSSASLYILGQQQALAARGWQSAAVNWRGCSGEPNHRARGYHSGVSEDLADVVKQLTLRYPHKLFAAIGYSLGGNVLLKYLGEKGSNTPLKAAVAVSVPFRLDHCAERINKGFSRVYQARFLRGLRRYVEHKRQAFLRQGRRGELARLAALETLKGMKTFWDFDGRVTAPLHGFESADDYYRRCSSAFFVEQIRIPTLIVHSLDDPFIYPQSVPKAEVLPSCVTLELHASGGHVGFIEGPPWRPRYYLEHRLPNWLQSQLCSQGKTHNTSALLSN	3	–
unnamed (protein) MFRFHIVSALLTLFIAVPSQAHDVGQREIKISGAEPGRNLEVSVWYPAAIDGKATLIGDNIIFKGAPAVIDATPEKGSFPLLVMSHGSGGRAQGMAWLATELVKAGIIVAAPNHPGTTSGDSTPQDTPKIWQRTGDLSAVIDTMTTDPAWSGIIDKNKISVLGHSLGGAAAMEIAGARANLEAYARYCDTYGKWDCAWYAGGIGYRDDKQIKVDKVDLRSVDKSRFEQSNLDRRIASAIMIDPGLAQAYDAQSLASISIPMSFINLGEVETIPTGVVADKLASITPQGTYVTVAGATHFSFLPECKKGAADRLKSAGEVDPICSDDARRPRADIHADITKLVLKALQSMPKT	15	–
unnamed (protein) MRKETAWFVGGAAIAAATAAGASVWSQYGSLVRWQEPELPIQPTTRRRHTYTYKIVHDRPLQFDLYLPPGEGPFPVAVYAHGGAFVRGNRSMVTLFHPLLDHFLGKGIAVVSIDYRLFEDGVYFPDNIFDVSDALCYLKQHESLLTLDTSQLLVWGDSAGAALMLATALDRYRQFAGDLGDDLPTIKGVIALYPPTNFLLFKFIQTWLAHLKFYEGSREEWRELMVKCSPVSHLYADAPPILLLHGKKDPIVPFGQALHFVEHASDVGANVQLISFPNGTHSLASFLQSDNPIKEEQLMARINRFIEECLG	25	–
unnamed (protein) MFRFHIVSALLTLFIAVPSQAHDVGQREIKISGAEPGRNLEVSVWYPAAIDGKATLIGDNIIFKGAPAVIDATPEKGSFPLLVMSHGSGGRAQGMAWLATELVKAGIIVAAPNHPGTTSGDSTPQDTPKIWQRTGDLSAVIDTMTTDPAWSGIIDKNKISVLGFALGGAAAMEIAGARANLEAYARYCDTYGKWDCAWYAGGIGYRDDKQIKVDKVDLRSVDKSRFEQSNLDRRIASAIMIDPGLAQAYDAQSLASISIPMSFINLGEVETIPTGVVADKLASITPQGTYVTVAGATHFSFLPECKKGAADRLKSAGEVDPICSDDARRPRADIHADITKLVLKALQSMPKT	15	–
unnamed (protein) MFRFHIVSALLTLFIAVPSQAHDVGQREIKISGAEPGRNLEVSVWYPAAIDGKATLIGDNIIFKGAPAVIDATPEKGSFPLLVMSHGSGGRAQGMAWLATELVKAGIIVAAPNHPGTTSGDSTPQDTPKIWQRTGDLSAVIDTMTTDPAWSGIIDKNKISVLGFSLGGAAAMEIAGARANLEAYARYCDTYGKWDCAWYAGGIGYRDDKQIKVDKVDLRSVDKSRFEQSNLDRRIASAIMIDPGLAQAYDAQSLASISIPMSFINLGEVETIPTGVVADKLASITPQGTYVTVAGATAFSFLPECKKGAADRLKSAGEVDPICSDDARRPRADIHADITKLVLKALQSMPKT	15	–
